Test results taken from paper PMC10899660 (2024).

B1: Ece1-IV, synthetic peptide (peptide)
peptide: EDIDSVVAGIIADMPFVVRAVDTAMTSVASTKR
B2: Ece1-II, synthetic peptide (peptide)
peptide: DVAPAAPAAPADQAPTVPAPQEFNTAITKR
B3: Ece1-V, synthetic peptide (peptide)
peptide: DGANDDVANAVVRLPEIVARVATGVQQSIENAKR
B4: Recombinant Cyclin H (CCNH) protein with a C-HIS tag (natural protein)
chain: MYHNSSQKRHWTFSSEEQLARLRADANRKFRCKAVANGKVLPNDPVFLEPHEEMTLCKYYEKRLLEFCSVFKPAMPRSVVGTACMYFKRFYLNNSVMEYHPRIIMLTCAFLACKVDEFNVSSPQFVGNLRESPLGQEKALEQILEYELLLIQQLNFHLIVHNPYRPFEGFLIDLKTRYPILENPEILRKTADDFLNRIALTDAYLLYTPSQIALTAILSSASRAGITMESYLSESLMLKENRTCLSQLLDIMKSMRNLVKKYEPPRSEEVAVLKQKLERCHSAELALNVITKKRKGYEDDDYVSKKSKHEEEEWTDDDLVESL

Key:
Assay in all cases: SPR
[1] = biological target: B4
[2] = biological target: B4
Ece1-III = biological target: Ece1-III

Binder | Kd [1] [µM] | koff [2] [s⁻¹] | Kd (Ece1-III) [µM] | koff (Ece1-III) [s⁻¹]
B1 | 5.98 | 0.000297 |  | 
B2 | 9.13 | 0.00415 |  | 
B3 | 3.16 | 0.000719 |  | 
B4 |  |  | 0.0172 | 0.00171
